{"source": "the supplement of paper PMC11316812", "key": {"hTERT-HMEC": {"system": "hTERT-HMEC", "assay": "percentage of EdU-negative (G0-arrested) nuclei per well, 72 h; higher = more G0 arrest", "settings": "reference: sequence is the full UniProt precursor, the tested protein was the secreted form or ectodomain"}, "MCF7": {"system": "MCF7", "assay": "percentage of EdU-negative (G0-arrested) nuclei per well, 72 h; higher = more G0 arrest", "settings": "reference: sequence is the full UniProt precursor, the tested protein was the secreted form or ectodomain"}, "[1]": {"settings": "protein concentration 0.0075 µM"}, "[2]": {"settings": "protein concentration 0.0111429 µM"}, "[3]": {"settings": "protein concentration 0.111429 µM"}, "[4]": {"settings": "protein concentration 0.03125 µM"}, "[5]": {"settings": "protein concentration 0.3125 µM"}, "[6]": {"settings": "protein concentration 0.0191429 µM"}, "[7]": {"settings": "protein concentration 0.191429 µM"}, "[8]": {"settings": "protein concentration 0.0225 µM"}, "[9]": {"settings": "protein concentration 0.0257143 µM"}, "[10]": {"settings": "protein concentration 0.257143 µM"}, "[11]": {"settings": "protein concentration 0.0357143 µM"}, "[12]": {"settings": "protein concentration 0.357143 µM"}}, "note": "± gives the standard deviation of the averaged measurements.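 Also: secreted proteins added to cultured cells, EdU pulse at the end, nuclei found by Hoechst imaging, EdU status from nuclear versus surrounding ring intensity ratio, PBS as neutral control.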"}
{"substance": "MAFPPRRRLRLGPRGLPLLLSGLLLPLCRAFNLDVDSPAEYSGPEGSYFGFAVDFFVPSASSRMFLLVGAPKANTTQPGIVEGGQVLKCDWSSTRRCQPIEFDATGNRDYAKDDPLEFKSHQWFGASVRSKQDKILACAPLYHWRTEMKQEREPVGTCFLQDGTKTVEYAPCRSQDIDADGQGFCQGGFSIDFTKADRVLLGGPGSFYWQGQLISDQVAEIVSKYDPNVYSIKYNNQLATRTAQAIFDDSYLGYSVAVGDFNGDGIDDFVSGVPRAARTLGMVYIYDGKNMSSLYNFTGEQMAAYFGFSVAATDINGDDYADVFIGAPLFMDRGSDGKLQEVGQVSVSLQRASGDFQTTKLNGFEVFARFGSAIAPLGDLDQDGFNDIAIAAPYGGEDKKGIVYIFNGRSTGLNAVPSQILEGQWAARSMPPSFGYSMKGATDIDKNGYPDLIVGAFGVDRAILYRARPVITVNAGLEVYPSILNQDNKTCSLPGTALKVSCFNVRFCLKADGKGVLPRKLNFQVELLLDKLKQKGAIRRALFLYSRSPSHSKNMTISRGGLMQCEELIAYLRDESEFRDKLTPITIFMEYRLDYRTAADTTGLQPILNQFTPANISRQAHILLDCGEDNVCKPKLEVSVDSDQKKIYIGDDNPLTLIVKAQNQGEGAYEAELIVSIPLQADFIGVVRNNEALARLSCAFKTENQTRQVVCDLGNPMKAGTQLLAGLRFSVHQQSEMDTSVKFDLQIQSSNLFDKVSPVVSHKVDLAVLAAVEIRGVSSPDHVFLPIPNWEHKENPETEEDVGPVVQHIYELRNNGPSSFSKAMLHLQWPYKYNNNTLLYILHYDIDGPMNCTSDMEINPLRIKISSLQTTEKNDTVAGQGERDHLITKRDLALSEGDIHTLGCGVAQCLKIVCQVGRLDRGKSAILYVKSLLWTETFMNKENQNHSYSLKSSASFNVIEFPYKNLPIEDITNSTLVTTNVTWGIQPAPMPVPVWVIILAVLAGLLLLAVLVFVMYRMGFFKRVRPPQEEQEREQLQPHENGEGNSET", "values": [{"measurement": "percentage of EdU-negative", "setting": "hTERT-HMEC; [1]", "value": "5.23 ± 0.5", "unit": "%"}, {"measurement": "percentage of EdU-negative", "setting": "hTERT-HMEC; protein concentration 0.075 µM", "value": "7.03 ± 1", "unit": "%"}, {"measurement": "percentage of EdU-negative", "setting": "MCF7; [1]", "value": "25.7 ± 3.1", "unit": "%"}, {"measurement": "percentage of EdU-negative", "setting": "MCF7; protein concentration 0.075 µM", "value": "28.8 ± 2", "unit": "%"}]}
{"substance": "MRKELQLSLSVTLLLVCGFLYQFTLKSSCLFCLPSFKSHQGLEALLSHRRGIVFLETSERMEPPHLVSCSVESAAKIYPEWPVVFFMKGLTDSTPMPSNSTYPAFSFLSAIDNVFLFPLDMKRLLEDTPLFSWYNQINASAERNWLHISSDASRLAIIWKYGGIYMDTDVISIRPIPEENFLAAQASRYSSNGIFGFLPHHPFLWECMENFVEHYNSAIWGNQGPELMTRMLRVWCKLEDFQEVSDLRCLNISFLHPQRFYPISYREWRRYYEVWDTEPSFNVSYALHLWNHMNQEGRAVIRGSNTLVENLYRKHCPRTYRDLIKGPEGSVTGELGPGNK [Q9UNA3]", "values": [{"measurement": "percentage of EdU-negative", "setting": "hTERT-HMEC; [2]", "value": "4.541 ± 0.041", "unit": "%"}, {"measurement": "percentage of EdU-negative", "setting": "hTERT-HMEC; [3]", "value": "5.48 ± 1.1", "unit": "%"}, {"measurement": "percentage of EdU-negative", "setting": "MCF7; [2]", "value": "26.4 ± 0.46", "unit": "%"}, {"measurement": "percentage of EdU-negative", "setting": "MCF7; [3]", "value": "27.4 ± 2.4", "unit": "%"}]}
{"substance": "MMCGAPSATQPATAETQHIADQVRSQLEEKENKKFPVFKAVSFKSQVVAGTNYFIKVHVGDEDFVHLRVFQSLPHENKPLTLSNYQTNKAKHDELTYF", "values": [{"measurement": "percentage of EdU-negative", "setting": "hTERT-HMEC; [4]", "value": "5.09 ± 0.59", "unit": "%"}, {"measurement": "percentage of EdU-negative", "setting": "hTERT-HMEC; [5]", "value": "4.78 ± 0.35", "unit": "%"}, {"measurement": "percentage of EdU-negative", "setting": "MCF7; [4]", "value": "26 ± 3.3", "unit": "%"}, {"measurement": "percentage of EdU-negative", "setting": "MCF7; [5]", "value": "26.5 ± 2.9", "unit": "%"}]}
{"substance": "MRPRLWLLLAAQLTVLHGNSVLQQTPAYIKVQTNKMVMLSCEAKISLSNMRIYWLRQRQAPSSDSHHEFLALWDSAKGTIHGEEVEQEKIAVFRDASRFILNLTSVKPEDSGIYFCMIVGSPELTFGKGTQLSVVDFLPTTAQPTKKSTLKKRVCRLPRPETQKGPLCSPITLGLLVAGVLVLLVSLGVAIHLCCRRRRARLRFMKQFYK", "values": [{"measurement": "percentage of EdU-negative", "setting": "hTERT-HMEC; [6]", "value": "5.15 ± 0.17", "unit": "%"}, {"measurement": "percentage of EdU-negative", "setting": "hTERT-HMEC; [7]", "value": "4.67 ± 0.05", "unit": "%"}, {"measurement": "percentage of EdU-negative", "setting": "MCF7; [6]", "value": "27.8 ± 0.56", "unit": "%"}, {"measurement": "percentage of EdU-negative", "setting": "MCF7; [7]", "value": "28.7 ± 0.39", "unit": "%"}]}
{"substance": "MTTQLRVVHLLPLLLACFVQTSPKQEKMKMDCHKDEKGTIYDYEAIALNKNEYVSFKQYVGKHILFVNVATYCGLTAQYPELNALQEELKPYGLVVLGFPCNQFGKQEPGDNKEILPGLKYVRPGGGFVPSFQLFEKGDVNGEKEQKVFSFLKHSCPHPSEILGTFKSISWDPVKVHDIRWNFEKFLVGPDGIPVMRWSHRATVSSVKTDILAYLKQFKTK", "values": [{"measurement": "percentage of EdU-negative", "setting": "hTERT-HMEC; [8]", "value": "5.29 ± 0.31", "unit": "%"}, {"measurement": "percentage of EdU-negative", "setting": "hTERT-HMEC; protein concentration 0.225 µM", "value": "7.84 ± 0.53", "unit": "%"}, {"measurement": "percentage of EdU-negative", "setting": "MCF7; [8]", "value": "26.1 ± 1.7", "unit": "%"}, {"measurement": "percentage of EdU-negative", "setting": "MCF7; protein concentration 0.225 µM", "value": "27.7 ± 0.58", "unit": "%"}]}
{"substance": "Q6ZMJ2", "values": [{"measurement": "percentage of EdU-negative", "setting": "hTERT-HMEC; [9]", "value": "4.96 ± 0.49", "unit": "%"}, {"measurement": "percentage of EdU-negative", "setting": "hTERT-HMEC; [10]", "value": "8.139 ± 0.079", "unit": "%"}, {"measurement": "percentage of EdU-negative", "setting": "MCF7; [9]", "value": "24.7 ± 1.6", "unit": "%"}, {"measurement": "percentage of EdU-negative", "setting": "MCF7; [10]", "value": "24.2 ± 0.89", "unit": "%"}]}
{"substance": "MNPTLILAAFCLGIASATLTFDHSLEAQWTKWKAMHNRLYGMNEEGWRRAVWEKNMKMIELHNQEYREGKHSFTMAMNAFGDMTSEEFRQVMNGFQNRKPRKGKVFQEPLFYEAPRSVDWREKGYVTPVKNQGQCGSCWAFSATGALEGQMFRKTGRLISLSEQNLVDCSGPQGNEGCNGGLMDYAFQYVQDNGGLDSEESYPYEATEESCKYNPKYSVANDTGFVDIPKQEKALMKAVATVGPISVAIDAGHESFLFYKEGIYFEPDCSSEDMDHGVLVVGYGFESTESDNNKYWLVKNSWGEEWGMGGYVKMAKDRRNHCGIASAASYPTV", "values": [{"measurement": "percentage of EdU-negative", "setting": "hTERT-HMEC; [11]", "value": "4.81 ± 0.59", "unit": "%"}, {"measurement": "percentage of EdU-negative", "setting": "hTERT-HMEC; [12]", "value": "5.42 ± 0.42", "unit": "%"}, {"measurement": "percentage of EdU-negative", "setting": "MCF7; [11]", "value": "27.8 ± 1.3", "unit": "%"}, {"measurement": "percentage of EdU-negative", "setting": "MCF7; [12]", "value": "24 ± 1.1", "unit": "%"}]}
